# Test results published in publication PMC10663602, “The structure of the teleost Immunoglobulin M core provides insights on polymeric antibody evolution, assembly, and function” (Nature Communications, 2023).
# T1: hFcµ-tFcµ-chi4 (human | Oncorhynchus mykiss (rainbow …))
# T1 chain: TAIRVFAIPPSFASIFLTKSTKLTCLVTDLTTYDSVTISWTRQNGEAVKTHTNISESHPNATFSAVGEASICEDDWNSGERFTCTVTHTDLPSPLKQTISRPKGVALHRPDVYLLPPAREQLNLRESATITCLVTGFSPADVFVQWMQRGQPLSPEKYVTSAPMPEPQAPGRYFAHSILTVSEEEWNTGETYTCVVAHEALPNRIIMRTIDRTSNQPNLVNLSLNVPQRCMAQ
# B1: hFcµ-tFcµ-chi4 (other)
# chain: T1 chain
# modifications: N-glycosylated; probable tetramer (P1), also a monomer fraction (P2) / N-glycosylated; probable tetramer (P1), also a monomer fraction (P2)
# B2: full-length hFcµ expressed without JC (domain or fragment)
# chain: TAIRVFAIPPSFASIFLTKSTKLTCLVTDLTTYDSVTISWTRQNGEAVKTHTNISESHPNATFSAVGEASICEDDWNSGERFTCTVTHTDLPSPLKQTISRPKGVALHRPDVYLLPPAREQLNLRESATITCLVTGFSPADVFVQWMQRGQPLSPEKYVTSAPMPEPQAPGRYFAHSILTVSEEEWNTGETYTCVVAHEALPNRVTERTVDKSTGKPTLYNVSLVMSDTAGTCY
# modifications: N-glycosylated, disulfide-linked hexamer of Fc dimers without J chain. Secretory form with tailpiece. N-terminus taken at TAIRVF (T343 in the paper's numbering), as in the printed chimeras; entity …
# What was measured:
# [1] = molecular target: T1, hFcµ-tFcµ-chi4; experiment: SEC-MALS; Superose 6 Increase 10/300, TBS buffer, 0.5 ml/min, 25 °C; 100 uL of protein at approximately 2 g/L; pIg peaks isolated from mIg by SEC before the analysis; details: both partners purified
# [2] = molecular target: full-length hFcµ expressed without JC (human, UniProt P01871 106-433); experiment: as above; details: both partners purified
# Sequence of full-length hFcµ expressed without JC (P01871 106-433): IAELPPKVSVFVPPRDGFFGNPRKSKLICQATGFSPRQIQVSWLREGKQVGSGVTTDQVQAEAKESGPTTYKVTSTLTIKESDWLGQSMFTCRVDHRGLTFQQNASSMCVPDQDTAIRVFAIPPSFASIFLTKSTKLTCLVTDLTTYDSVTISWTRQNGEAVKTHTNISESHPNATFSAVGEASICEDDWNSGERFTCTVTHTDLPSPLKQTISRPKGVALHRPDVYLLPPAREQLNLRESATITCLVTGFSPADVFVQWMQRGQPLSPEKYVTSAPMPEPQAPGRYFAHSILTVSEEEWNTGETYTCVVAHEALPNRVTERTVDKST
Binder,stoichiometry N [1],stoichiometry N [2]
B1,~4,–
B2,–,6
